The target in this test is R3B2 1-273 (RIIID and first dsRBD) (Mucor lusitanicus). Put plainly: SEC-MALS.

Our source for the stoichiometry N values is PMC8136814.

“R3B2 1-273 (RIIID and first dsRBD) (domain or fragment)” yielded a stoichiometry N of 2.
